Numbering of substitutions follows the chain as printed.
B1: IgG1-F586 (antibody)
heavy: QVQLQESGPGLVKPSETLSLTCAVSGHSISHDHAWSWVRQPPGEGLEWIGFISYSGITNYNPSLQGRVTISRDNSKNTLYLQMNSLRAEDTAVYYCARSLARTTAMDYWGEGTLVTVSSASTKGPSVFPLAPSSKSTSGGTAALGCLVKDYFPEPVTVSWNSGALTSGVHTFPAVLQSSGLYSLSSVVTVPSSSLGTQTYICNVNHKPSNTKVDKKVEPKSCDKTHTCPPCPAPELLGGPKVFLFPPKPKDTLYISRTPEVTCVVVDVSHEDPEVKFNWYVDGVEVHEAKTKPREEQYNSTYRVVSVLTPLHQDWLNGKEYKCKVSNKALPAPIEKTISKAKGQPREPQVYTLPPSRDELTKNQVSLTCLVKGFYPSDIAVEWESNGQPENNYKTTPPVLDSDGSFFLYSKLTVDKSRWQQGNVFSCSVIHEALHNHYTQKSLSLSP
light: not shown
notes: EU numbering; copies: 2 + 2
B2: IgG1-F630 (antibody)
heavy: B1 heavy with V281L, E288N, I430M, N436Y
light: not shown
notes: EU numbering; copies: 2 + 2
B3: IgG1-F671 (antibody)
heavy: B1 heavy with K241S, E288L, I430M, N436Y
light: not shown
notes: EU numbering; copies: 2 + 2
B4: IgG1-F642 (antibody)
heavy: B1 heavy with E288N, Q388K, I430M, N436Y
light: not shown
notes: EU numbering; copies: 2 + 2
B5: IgG1-F658 (antibody)
heavy: B1 heavy with P240K, E288N, I430M, N436Y
light: not shown
notes: EU numbering; copies: 2 + 2
B6: IgG1-F663 (antibody)
heavy: B1 heavy with T309Q, Q313A, I430M, N436Y
light: not shown
notes: EU numbering; copies: 2 + 2
B7: IgG1-F664 (antibody)
heavy: B1 heavy with K241S, E288A, I430M, N436Y
light: not shown
notes: EU numbering; copies: 2 + 2
B8: IgG1-F667 (antibody)
heavy: B1 heavy with K241S, E288G, I430M, N436Y
light: not shown
notes: EU numbering; copies: 2 + 2
B9: IgG1-F661 (antibody)
heavy: B1 heavy with E288N, P331R, I430M, N436Y
light: not shown
notes: EU numbering; copies: 2 + 2
B10: IgG1-F611 (antibody)
heavy: B1 heavy with K241S, E288N, V307T, T309P, P310I, L311A, I430M, N436Y
light: not shown
notes: EU numbering; copies: 2 + 2
B11: IgG1-F597 (antibody)
heavy: B1 heavy with K241S, E288N, P310V, E384A, P389E, I430M, N436Y
light: not shown
notes: EU numbering; copies: 2 + 2
B12: IgG1-F660 (antibody)
heavy: B1 heavy with E288N, P331K, I430M, N436Y
light: not shown
notes: EU numbering; copies: 2 + 2
B13: IgG1-F657 (antibody)
heavy: B1 heavy with G239R, E288N, I430M, N436Y
light: not shown
notes: EU numbering; copies: 2 + 2
B14: IgG1-F624 (antibody)
heavy: B1 heavy with Y254M, P259A, T309Q, P310V, I430L, N436Y
light: not shown
notes: EU numbering; copies: 2 + 2
B15: IgG1-F650 (antibody)
heavy: B1 heavy with T258E, E288N, P310V, I430M, N436Y
light: not shown
notes: EU numbering; copies: 2 + 2
B16: IgG1-F659 (antibody)
heavy: B1 heavy with P240R, E288N, I430M, N436Y
light: not shown
notes: EU numbering; copies: 2 + 2
B17: IgG1-F612 (antibody)
heavy: B1 heavy with K241S, E288N, T309P, P310I, L311A, I430M, N436Y
light: not shown
notes: EU numbering; copies: 2 + 2
B18: IgG1-F655 (antibody)
heavy: B1 heavy with L237R, E288N, I430M, N436Y
light: not shown
notes: EU numbering; copies: 2 + 2
B19: IgG1-F639 (antibody)
heavy: B1 heavy with K241S, E288N, G387R, I430M, N436Y
light: not shown
notes: EU numbering; copies: 2 + 2
B20: IgG1-F670 (antibody)
heavy: B1 heavy with K241S, E288K, I430M, N436Y
light: not shown
notes: EU numbering; copies: 2 + 2
B21: IgG1-F620 (antibody)
heavy: B1 heavy with S256T, E288N, P310V, I430M, N436Y
light: not shown
notes: EU numbering; copies: 2 + 2
B22: IgG1-F633 (antibody)
heavy: B1 heavy with K241S, V284D, E288N, I430M, N436Y
light: not shown
notes: EU numbering; copies: 2 + 2
B23: IgG1-F641 (antibody)
heavy: B1 heavy with K241S, E288N, Q388K, I430M, N436Y
light: not shown
notes: EU numbering; copies: 2 + 2
B24: IgG1-F592 (antibody)
heavy: B1 heavy with K241S, S256T, E288N, P310V, E384A, I430M, N436Y
light: not shown
notes: EU numbering; copies: 2 + 2
B25: IgG1-F623 (antibody)
heavy: B1 heavy with Y254W, E288N, P310V, I430M, N436W
light: not shown
notes: EU numbering; copies: 2 + 2
B26: IgG1-F622 (antibody)
heavy: B1 heavy with T258Q, E288N, P310V, I430M, N436Y
light: not shown
notes: EU numbering; copies: 2 + 2
B27: IgG1-F594 (antibody)
heavy: B1 heavy with T258E, E288N, N436Y
light: not shown
notes: EU numbering; copies: 2 + 2
B28: IgG1-F643 (antibody)
heavy: B1 heavy with L237G, G238R, E288N, I430M, N436Y
light: not shown
notes: EU numbering; copies: 2 + 2
B29: IgG1-F636 (antibody)
heavy: B1 heavy with V286K, E288N, I430M, N436Y
light: not shown
notes: EU numbering; copies: 2 + 2
B30: IgG1-F637 (antibody)
heavy: B1 heavy with K241S, E288N, K290S, I430M, N436Y
light: not shown
notes: EU numbering; copies: 2 + 2
B31: IgG1-F649 (antibody)
heavy: B1 heavy with P310V, I430M, N436Y
light: not shown
notes: EU numbering; copies: 2 + 2
B32: IgG1-F599 (antibody)
heavy: B1 heavy with K241S, E288N, P310V, P389E, I430Y, N436Y
light: not shown
notes: EU numbering; copies: 2 + 2
B33: IgG1-F619 (antibody)
heavy: B1 heavy with E288N, P310V, I430M, N436Y
light: not shown
notes: EU numbering; copies: 2 + 2
B34: IgG1-F625 (antibody)
heavy: B1 heavy with Y254M, P259A, E288N, T309Q, P310V, I430L, N436Y
light: not shown
notes: EU numbering; copies: 2 + 2
B35: IgG1-F587 (antibody)
heavy: B1 heavy with K241S, P310V, I430L, N436Y
light: not shown
notes: EU numbering; copies: 2 + 2
B36: IgG1-F634 (antibody)
heavy: B1 heavy with V284D, E288N, I430M, N436Y
light: not shown
notes: EU numbering; copies: 2 + 2
B37: IgG1-F635 (antibody)
heavy: B1 heavy with K241S, V286K, E288N, I430M, N436Y
light: not shown
notes: EU numbering; copies: 2 + 2
B38: IgG1-F640 (antibody)
heavy: B1 heavy with E288N, G387R, I430M, N436Y
light: not shown
notes: EU numbering; copies: 2 + 2
B39: IgG1-F618 (antibody)
heavy: B1 heavy with Y254M, E288N, P310F, I430M, N436Y
light: not shown
notes: EU numbering; copies: 2 + 2
B40: IgG1-F593 (antibody)
heavy: B1 heavy with S256T, E288N, N436Y
light: not shown
notes: EU numbering; copies: 2 + 2
B41: IgG1-F598 (antibody)
heavy: B1 heavy with K241S, E288N, P310V, D314A, P389E, I430M, N436Y
light: not shown
notes: EU numbering; copies: 2 + 2
B42: IgG1-F666 (antibody)
heavy: B1 heavy with K241S, E288F, I430M, N436Y
light: not shown
notes: EU numbering; copies: 2 + 2
B43: IgG1-F652 (antibody)
heavy: B1 heavy with P240D, K241S, E288N, P310V, I430M, N436Y
light: not shown
notes: copies: 2 + 2
B44: IgG1-F600 (antibody)
heavy: B1 heavy with K241S, T258Q, E288N, P310V, E384A, I430M, N436Y
light: not shown
notes: EU numbering; copies: 2 + 2
B45: IgG1-F629 (antibody)
heavy: B1 heavy with K241S, V281L, E288N, I430M, N436Y
light: not shown
notes: EU numbering; copies: 2 + 2
B46: IgG1-F595 (antibody)
heavy: B1 heavy with E288N, P310V, N436Y
light: not shown
notes: EU numbering; copies: 2 + 2
B47: IgG1-F668 (antibody)
heavy: B1 heavy with K241S, E288H, I430M, N436Y
light: not shown
notes: EU numbering; copies: 2 + 2
B48: IgG1-F601 (antibody)
heavy: B1 heavy with K241S, I430M, N436Y
light: not shown
notes: EU numbering; copies: 2 + 2
B49: IgG1-F647 (antibody)
heavy: B1 heavy with P240D, K241S, E288N, I430M, N436Y
light: not shown
notes: EU numbering; copies: 2 + 2
B50: IgG1-F654 (antibody)
heavy: B1 heavy with L237K, E288N, I430M, N436Y
light: not shown
notes: EU numbering; copies: 2 + 2
B51: IgG1-F645 (antibody)
heavy: B1 heavy with E288N, L330R, I430M, N436Y
light: not shown
notes: EU numbering; copies: 2 + 2
B52: IgG1-F638 (antibody)
heavy: B1 heavy with E288N, K290S, I430M, N436Y
light: not shown
notes: EU numbering; copies: 2 + 2
B53: IgG1-F621 (antibody)
heavy: B1 heavy with E288N, T309A, P310V, Q313H, I430M, N436Y
light: not shown
notes: EU numbering; copies: 2 + 2
B54: IgG1-F646 (antibody)
heavy: B1 heavy with E288N, N299A, I430M, N436Y
light: not shown
notes: EU numbering; copies: 2 + 2
B55: IgG1-F656 (antibody)
heavy: B1 heavy with G239K, E288N, I430M, N436Y
light: not shown
notes: EU numbering; copies: 2 + 2
B56: IgG1-F669 (antibody)
heavy: B1 heavy with K241S, E288I, I430M, N436Y
light: not shown
notes: EU numbering; copies: 2 + 2
B57: IgG1-F644 (antibody)
heavy: B1 heavy with G238R, E288N, I430M, N436Y
light: not shown
notes: EU numbering; copies: 2 + 2
B58: IgG1-F665 (antibody)
heavy: B1 heavy with K241S, E288D, I430M, N436Y
light: not shown
notes: EU numbering; copies: 2 + 2
B59: IgG1-F651 (antibody)
heavy: B1 heavy with E288N, P310V, Q313A, I430M, N436Y
light: not shown
notes: EU numbering; copies: 2 + 2
B60: IgG1-F596 (antibody)
heavy: B1 heavy with K241S, E288N, P310V, D314A, E384A, I430Y, N436Y
light: not shown
notes: EU numbering; copies: 2 + 2

Target: T1, human FcRn (soluble human FcRn complexed with β2-microglobulin) (human, UniProt P61769 21-119, limits assumed)
T1 construct: also called hFcRn
Assay: SPR, pH 7.0;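 further: antibodies captured on a Protein L sensor chip with human FcRn injected as analyte, KD calculated from fitted association and dissociation rate constants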

Kd [nM] | Binder
140 | B1
37 | B2
22 | B3
30 | B4
32 | B5
6.4 | B6
39 | B7
30 | B8
34 | B9
280 | B10
220 | B11
31 | B12
32 | B13
14 | B14
170 | B15
30 | B16
360 | B17
34 | B18
27 | B19
210 | B20

Kd [nM] | Binder
210 | B21
24 | B22
30 | B23
200 | B24
180 | B25
350 | B26
16 | B27
32 | B28
48 | B29
150 | B30
120 | B31
520 | B32
310 | B33
76 | B34
190 | B35
32 | B36
45 | B37
36 | B38
640 | B39
31 | B40

Kd [nM] | Binder
140 | B41
21 | B42
240 | B43
280 | B44
39 | B45
180 | B46
40 | B47
9.6 | B48
29 | B49
32 | B50
33 | B51
140 | B52
150 | B53
38 | B54
33 | B55
35 | B56
30 | B57
20 | B58
180 | B59
400 | B60
